The values below come from the DeepSol protein solubility set.

A short description of the series: soluble on expression in E. coli; label from the status in PepcDB or PDB records.
In the case of “MKTFSDRWRQLDWDDIRLRINGKTAADVERALNASQLTRDDMMALLSPAASGYLEQLAQRAQRLTRQRFGNTVSFYVPLYLSNLCANDCTYCGFSMSNRIKRKTLDEADIARESAAIREMGFEHLLLVTGEHQAKVGMDYFRRHLPALREQFSSLQMEVQPLAETEYAELKQLGLDGVMVYQETYHEATYARHHLKGKKQDFFWRLETPDRLGRAGIDKIGLGALIGLSDNWRVDSYMVAEHLLWLQQHYWQSRYSVSFPRLRPCTGGIEPASIMDERQLVQTICAFRLLAPEIELSLSTRESPWFRDRVIPLAINNVSAFSKTQPGGYADNHPELEQFSPHDDRRPEAVAAALTAQGLQPVWKDWDSYLGRASQRL”, the “soluble on expression in E. coli” value is listed as “not soluble”.
Then “MVLAERDDRLLGFASFRRTEDFAHYQPQRADAPRAYICEAVVHPAAAGQGLGSALLEAVLAQLADEGIEDVYIDRHEENLASAGMMRKAGFV”, with “soluble”.
Then “MGLFDRLKRVVGANVNDLINKAEDPEKMLEQAILEMQEDLVQLRQGVAQAIAAQKRTEKQYNDAQNEINKWDRNARLALQKGDENLARQALERKKSFTDTSTSLKTSLDQQTIQVDTLKKNLIQLESKISEAKTKKEMLKARITAAKAQEQLGSMVVSMNSSSAMAAFERMEEKVLMQEARAQSTAELVGADLETQFAQLESGSDVDDELAALKASMLPPAPAPQGQLPPSQATTAKPTEPIDSDLEALKRQLDQM”, with “not soluble”.
Consider “HWPPLGIVRDLWTESGIGPERVAVMERVAGPKCCLLGRQNDRPSGAAFVGLAGPFAMLHALEVTPALRRLGSAQAMIRRGACWAEAAGAHWFSLVVTTANAPARALYEALGMEEVGHYHYRLK”, for which the “soluble on expression in E. coli” value was “not soluble”.
With “IVRPPFTYATLIRQAIMESSDRQLTLNEIYSWFTRTFAYFRRNAATWKNAVRHNLSLHKCFVRVENVKGAVWTVDEVEYQKRRSQKITGSPTL”, the “soluble on expression in E. coli” value is on record as “soluble”.
Turning to “MKDNNEVLKLFIVSDSIGETAQRMIHATLTQFPDLTQVEIKKFPYIKDEQEFLNVLQLAKEQNAIVATTLVSESFNALGHQFANEHQIPYVDYMSELISIIKQHTHAKPLMESGALRKLNDEYFKRIEAIEYSVKYDDGKHFTDIGEADALIVGVSRTSKTPLSMYLANKGYKIANIPLVPEVAIPDNVFQQKNLKVFGLTASPNYIANIRRNRAETLGLSSESNYNSLERIKKELSYAEEVFRKLNATVINTEYKSIEESAFYIEKFLAKRLEHHHHHH”, the “soluble on expression in E. coli” value is reported as “not soluble”.
As for “QTSAVQQKLAALEKSSGGRLGVALIDTADNTQVLYRGDERFPMCSTSKVMAAAAVLKQSETQKQLLNQPVEIKPADLVNYNPIAEKHVNGTMTLAELSAAALQYSDNTAMNKLIAQLGGPGGVTAFARAIGDETFRLDRTEPTLNTAIPGDPRDTTTPRAMAQTLRQLTLGHALGETQRAQLVTWLKGNTTGAASIRAGLPTSWTAGDKTGSGDYGTTNDIAVIWPQGRAPLVLVTYFTQPQQNAESRRDVLASAARIIAEGL”, the “soluble on expression in E. coli” value is given as “soluble”.
Then “MSLAFGLDKLVDLLKAAGEPTRFRLLALLSAGDLTVTDLTEILGQSQPRISRHLKLLTEEGLIERYQEGAWAYFRLRQDGEPAVVVRQLLGAASPSDAVLQRDSERLATVKRVRAERAQDYFSRNASAWDELRRLHVSDEAVEGALLKLVGTTPIDSLLDLGTGTGRILQLLSGIYRRAIGVDASRDMLSVARANLDKAGVGNASVRHGDILNLPLEGQDFDLIVIHQVLHFLDQPEIALSEAARMLRPGGRLIVIDLAPHSFEYLRDEHAHVRLGFSHPLMEEWMKKAGLSLERAVDLHSEKASDEALDVTIWVARDQRLLMADDVVQEAVLLRSGRAEGHHHHHH”, with “soluble”.
Then “MGSDKIHHHHHHMLDAQNVSVGYDEKTPIIQQLSFQVHKGEIFGILGPNGSGKTTLLKAVSGLLSPSEGTITLHGKAIADYHSKELAQKMAVLPQTADTAFAYKVKEVVALGRYPHQKGWLASESQEDERVIREAMEQTDTWKFRNKPLQTLSGGERQRALLARALCQEPDLLLLDEPTNHLDISHQMQLLDALKDWTRTRQLTVVAILHDLNMASLYCDRVLLLNEGRMVDLNSPRQVMTEHQLANVYETKIRRNEHPTIPRPLVTFEPAAIRSKPSSPISELEVFTSEQLIKVTSSIRWKTLSSAVLGAGFKWHQTFVNRHVSKDYYCDDVEREFQTFLSNVGVDGTDALGMMTAAILEDVAITEATYESFKVRVFVTAGISNAVDAAKAHLRKRNEATVGTINTWVFIEGTLPDAAYVQALMTATEAKGRALAEKEILDPVTGTLATGTSTDSVMIASSQTGTYFPYAGTITPLGQAIGKLVYDATIQAVTDNEKRRLER”, with “not soluble”; and “MGSDKIHHHHHHMQPLAFRMRPRTIEEIVGQQHLVGPGKIIDRMVKAKLLSSMILYGPPGTGKTSIASAISGSTKYAFRILNAATDSKKDLQIVAEEAKMSGTVILLLDEIHRLDKTKQDFLLPHLENGNIILIGATTENPYININPAIRSRTQIFEVKPLQPDEIKKAVLAAIKDSSRGLGELPIVIDEDALKFVSESTNGDLRSALNAVELAARSTGPDENQKIHLTLAILEECLQKRALTQDKDGDAHYDVISAFQKSIRGSDTDAALHYMARLLESGDLQSVIRRLLIIAYEDIGLANPPACQRTVSAVTAAEHVGLPEARIPLADAVIELCVSPKSNSGISAIDNALTDVRTGKIGEVPDHLRDSHYKGAAALGRGVDYKYPHNYPNDWIAQQYLPDKLVDAAYFDAKGNSTYEEKIKNRYESLKKSQRSNH”, with “not soluble”; and “MGSDKIHHHHHHMDKELDLAVTCYGKVKPLKYDLVLLPWGATEPHNLHLPYLTDCILSHDIALDAAKLAKTHYGIRCMVMPYVTAGSQNPGQRELDFCIHYRYETQKAILSDLVASLYAQGYRKMVIINGHGGNTFKSMIRDLSLDYPDFLIASSEWFAFIPAKEYFDEPGDHADELETSVMMHYHPELVNLDEAGDGNYKKFASQMLNEKVAWIPRNWQNVSQDTGIGNPKKASAGKGKKYAEAVVAKYALLFEELVHKELY”, with “not soluble”.
Then “MGSDKIHHHHHHSDEEDGGSGGNLIYGGVSVSQEVLAHKPMLEKYAREYGIEEYLNVLLAIIQVESGGTLEDVMQSSESLGLPPNSLSTEESIKQGCKYFSELLAAAETKGCDLNSVIQSYNYGGGFLDYVAGHGKKYTFELAESFARDKSGGKKVTYTNPVAVEKNGGWRYSYGNMFYVLLVSQYLTVAQFDDETVQAIMEEALKYEGWTYVYGGDSPSTSFDCSGLVQWCYGKAGIALPRTAQEQYNVTQHIPLSEAKAGDLVFFHSTYNAGTYITHVGLYVGNNRMYHAGNPIGYADLTGSYWQQHLAGAGRIKQ”, with “not soluble”.
“MGSDKIHHHHHHMVINIEQAIAWMASRKGKVTYSMDYRNGPSSYDCSSSVYFALRSAGASDNGWAVNTEYEHDWLIKNGYVLIAENTNWNAQRGDIFIWGKRGASAGAFGHTGMFVDPDNIIHCNYGYNSITVNNHDEIWGYNGQPYVYAYRYARKQSNAKVDNQSVVSKFEKELDVNTPLSNSNMPYYEATISEDYYVESKPDVNSTDKELLVAGTRVRVYEKVKGWARIGAPQSNQWVEDAYLIDATDM”: the “soluble on expression in E. coli” value is on record as “not soluble”.
With “GSHMASPPTHNAHNWRLGQAPANWYNDTYPLSPPQRTPAGIRYRIAVIADLDTESRAQEENTWFSYLKKGYLTLSDSGDKVAVEWDKDHGVLESHLAYKGRGMELSDLIVFNGKLYSVDDRTGVVYQIEGSKAVPWVILSDGDGTVEKGFKAEWLAVKDERLYVGGLGKEWTTTTGDVVNENPEWVKVVGYKGSVDHENWVSNYNALRAAAGIQPPGYLIHESACWSDTLQRWFFLPRRASQERYSEKDDERKGANLLLSASPDFGDIAVSHVGAVVPTHGFSSFKFIPNTDDQIIVALKSEEDSGRVASYIMAFTLDGRFLLPETKIGSVKYEGIEFI”, the “soluble on expression in E. coli” value is listed as “soluble”.
Take “AIAAESNQNTDGAVEEGEDENTGDSNLQMELSAFRAKWMSELQPSSGGQRSFSRNAELRRRQETAKEEKARELFLKAVEEEQNGAVYEAIKYYKSAMQLVPDIEFKINYSRTPDPERGGSYLESSENNREIDDLLTYFQHQLTLGNDAMKLCEHETETSQVHISALPFEVLMYIFRWVVSCDLDLRALEQLSLVCRGFYICARDPEIWRSACLRVWGRSCTKMLPYSSWREMFLERPRVRFDGVYISKTSYIRQGEESLDGFYRAWHQVEYYRYLRFFPDGQVMMLTTPEDPLVTVPRLRSKNSRMDSIMFGHYRLSQDTDNQTKVYVVVSKRKEEKVSEYQRSRFCRRNPVPEAERSFHVGLQLSSGGRQRFNKLVWIHHSCHITYRSTGETVVTAFDVDKMYTPLFFARVKSYTAFSERPL”: the “soluble on expression in E. coli” value is on record as “soluble”.
